According to US20190127434:

Tested on: K6UbKMRC011

USP1 (ubiquitin-specific protease 1)
cleavage by USP1, SDS-PAGE analysis (10 mg/L enzyme, 37 C, 12 hours): most of the refolded K6UbKMRC011 was cleaved by USP1 and separated into K6Ub and KMRC011 | cleavage by ubiquitin cleavage enzymes, SDS-PAGE analysis (10 mg/L enzyme, 37 C, 12 hours): the refolded K6UbKMRC011 was cleaved by the ubiquitin cleavage enzymes shown in Table 2 and correctly separated into K6Ub and KMRC011 | on-column cleavage, amino terminal sequence analysis of the released KMRC011: the USPI clearly cleaved the immediate side of K6Ub of K6UbKMRC011 so that only KMRC011 was separated and purified
